The source of these data is patent CN117603358A.

By Kd is commonly meant the constant that tells how readily two partners part at equilibrium.

Experiment [1] addresses S蛋白, SARS-CoV-2 BF.7 (SARS-CoV-2 BF.7). The experiment can be described thus: cell-based or functional assay.
Experiment [2] concerns the target S蛋白, SARS-CoV-2 BQ.1.1 (SARS-CoV-2 BQ.1.1). The experiment in a line: cell-based or functional assay.
In experiment [3] the target is S蛋白, SARS-CoV-2 XBB.1.5 (SARS-CoV-2 XBB.1.5). The experiment in a line: cell-based or functional assay.
The target of experiment [4] is S蛋白, SARS-CoV-2 BA.4/5 (SARS-CoV-2 BA.4/5). The experiment can be described thus: cell-based or functional assay.
For experiment [5], the target named is S蛋白, SARS-CoV-2 BQ.1 (SARS-CoV-2 BQ.1). The experiment can be described thus: cell-based or functional assay.
Experiment [6] addresses S蛋白, SARS-CoV-2 XBB (SARS-CoV-2 XBB). The experiment in a line: cell-based or functional assay.
For experiment [7], the target named is S蛋白, SARS-CoV-2 Delta (SARS-CoV-2 Delta). The experiment can be described thus: cell-based or functional assay.
In experiment [8] the target is S蛋白, SARS-CoV-2 BA.1 (SARS-CoV-2 BA.1). The experiment can be described thus: cell-based or functional assay.
Experiment [9] addresses S蛋白, SARS-CoV-2 BA.2.75 (SARS-CoV-2 BA.2.75). The experiment in a line: cell-based or functional assay.
The target of experiment [10] is SARS-CoV-2(BA.5) Spike RBD (SARS-CoV-2 BA.5). The experiment in a line: SPR (Biacore 8K), antibody captured on Protein A chip, RBD as analyte. A general note: In SPR one partner is held on a chip, and binding of the other changes the refractive index at the surface.
For experiment [11], the target named is SARS-CoV-2(BF.7) Spike RBD (SARS-CoV-2 BF.7). The description is as above.

As for LY-CoV1404 (antibody), the 假病毒中和活性 IC50 is 2.14 ng/mL in [1]; more than 2000 ng/mL in experiment [2]; more than 2000 ng/mL in experiment [3]; 1.22 ng/mL in experiment [4]; more than 2000 ng/mL in experiment [5]; more than 2000 ng/mL in experiment [6]. For the same substance, the 假病毒中和活性 IC50 stood at 3.05 ng/mL in experiment [7], 1.44 ng/mL in experiment [8] and 25.1 ng/mL in experiment [9]. Besides, the results for the dissociation constant Kd in [10] and in [11] were 0.184 nM and 0.162 nM, respectively.
